Reference: patent publication US20050064493A1 (LICENTIA, published 2005)
Blank lines part the entries; values can stand above or below the binder they belong to.

Tests used:
human VEGF165 [1] = target: T1, human VEGF165 (human, UniProt P15692 27-191); test: cotransfected Cos-1 cells; immunoprecipitation of media and lysates, reducing SDS-PAGE (FIG. 23B)
T1 construct: mature; Expressed from cDNA in 293EBNA cells (pREP7) or Cos-1 cells (pSG5)
Method: cDNA inserts encoding mouse VEGF-B₁₈₆ and human VEGF₁₆₅ were cloned into the pSG5 expression vector [Green et al., Nucleic Acid Res., 16:369 (1988)]. Cos-1 cells were maintained in minimal essential medium (MEM) containing 10% fetal calf serum, 2 mM glutamine and appropriate antibiotics. For transfections, the cells were replated into 90 mm Petri dishes. The cells were transfected with the expression vectors, separately or in combination, using calcium phosphate precipitation and incubated for 36-48 hours. Monolayers of cells were incubated in medium free of methionine and cysteine for 30 min and then incubated in the same medium containing 100 μCi/ml of [³⁵S]-methionine and [³⁵S]-cysteine for 2 hours (Promix Amersham Inc.).
For the pulse-chase experiments, the cells were labeled for 30 minutes, washed twice with normal medium and then incubated for up to 6 hours in MEM without fetal calf serum. Media were collected after the chase period and the cells were solubilized in 10 mM Tris buffer pH 7.5 containing 50 mM NaCl, 0.5% deoxycholate, 0.5% nonidet P-40 and 0.1% SDS. Aliquots of the media and the cell lysates were subjected to immunoprecipitation using the specific antiserum to mouse VEGF-B from Example 8a and a specific antiserum to human VEGF commercially available from R&D Systems. The precipitates were analyzed by SDS-PAGE. […]

[2] = target: the molecule itself; test: SDS-PAGE and immunoblot of Sf21 culture medium
Method: Sf21 cells [see Vaughn et al., In Vitro, 13:213-17 (1977)] were infected with the baculovirus stocks of Example 10 at a multiplicity of infection of 10 virus particles per cell. The infected Sf21 cells were grown in roller flasks and seeded at a density of 2×10⁶ cells per ml of serum free medium (Sf900II, Gibco-BRL) for 96 hours. Culture media and cells were then harvested. Aliquots of the cell lysates and of the media were analyzed by SDS-PAGE. Total protein patterns were visualized by staining the gels with Coomassie Brilliant Blue and the presence of expressed VEGF-B isoforms were visualized by immunoblotting using specific antipeptide antibodies to human and mouse VEGF-B as described above in Example 8. […] Both proteins were retained intracellularly in the infected cells and not released into the medium. In contrast, mouse VEGF-B-₁₈₆ was readily secreted into the medium in a dimeric form.

human VEGF165 [3] = target: T1, human VEGF165; test: coexpression in transfected cells, immunoprecipitation
Text: (§1) The biochemical properties of human VEGF-B₁₆₇ were examined in transfected human embryonic kidney 293EBNA cells (Invitrogen, Inc.). cDNA inserts encoding human VEGF-B₁₆₇ and human VEGF₁₆₅ [see Keck et al., Science, Vol. 246, pages 1309-312 (1989)] were individually cloned into the pREP7 expression vector (Invitrogen, Inc.). Human embryo kidney 293EBNA cells (expressing Epstein-Barr virus nuclear antigen-1) were transfected by transient transfection with the respective expression plasmids using calcium phosphate precipitation, and the cells were incubated for 48 hours. As a control, cells also were transfected with an expression vector containing the VEGF-B₁₆₇ cDNA in reverse orientation. Monolayers of cells were incubated in methionine-free and cysteine-free medium for 30 minutes followed by labeling with 100 μCi/ml [³⁵S]methionine and [³⁵S]cysteine (Promix, Amersham Inc.) in the same medium for 2 hours. The labeling medium was replaced with normal medium without serum, and labelled proteins were chased for 6 hours. Heparin was included during the chase when indicated (100 μg/ml). Media were collected after the chase period, and cells were solubilized in 10 mM Tris pH 7.5, 50 mM NaCl, 0.5% sodium deoxycholate, 0.5% Nonidet P-40, 0.1% SDS and 0.1 U/ml aprotinin. […]

[4] = target: the molecule itself; test: immunoprecipitation and SDS-PAGE, transfected 293EBNA cells
Text: as §1, with “hours.” for “hours. The labeling medium was replaced with normal medium without serum, and labelled proteins were chased for 6 hours. Heparin was included during the chase when indicated (100 μg/ml). Media were collected after the chase period, and cells were solubilized in 10 mM Tris pH 7.5, 50 mM NaCl, 0.5% sodium deoxycholate, 0.5% Nonidet P-40, 0.1% SDS and 0.1 U/ml aprotinin.”
VEGF-B₁₆₇ was expressed in the cells transfected with the plasmids containing the VEGF-B₁₆₇ DNA. Aliquots of the culture supernatants from cells treated or untreated with heparin and detergent solubilized cell lysates were subjected to immunoprecipitation with the specific antipeptide antiserum to VEGF-B obtained as described in Example 8 and analyzed by SDS-PAGE under reducing conditions unless otherwise indicated. […]

T1 sequence (P15692 other isoform, or with tags, fused parts or gaps): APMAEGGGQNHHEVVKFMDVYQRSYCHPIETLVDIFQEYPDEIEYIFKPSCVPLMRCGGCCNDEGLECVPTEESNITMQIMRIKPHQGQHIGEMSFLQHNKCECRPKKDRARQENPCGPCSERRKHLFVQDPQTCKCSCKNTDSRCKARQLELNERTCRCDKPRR

binding result (human VEGF165 [1]): binds
B1: murine VEGF-B186 (ligand)
chain: PVAQFDGPSHQKKVVPWIDVYARATCQPREVVVPLSMELMGNVVKQLVPSCVTVQRCGGCCPDDGLECVPTGQHQVRMQILMIQYPSSQLGEMSLEEHSQCECRPKKKESAVKPDRVAIPHHRPQPRSVPGWDSTPGASSPADIIHPTPAPGSSARLAPSAVNALTPGPAAAAADAAASSIAKGGA
notes: Expressed in Cos-1 cells (pSG5) or Sf21 insect cells; The form secreted from Cos-1 cells carries an unidentified covalent modification (Mr 32,000 against 24,000 in cells); it forms disulfide-linked homodimers and heterodimers with VEGF165; also called mVEGF-B186; mouse VEGF-B186
binding result [2]: binds

binding result (human VEGF165 [3]): binds
B2: human VEGF-B167 (ligand)
chain: PVSQPDAPGHQRKVVSWIDVYTRATCQPREVVVPLTVELMGTVAKQLVPSCVTVQRCGGCCPDDGLECVPTGQHQVRMQILMIRYPSSQLGEMSLEEHSQCECRPKKKDSAVKPDSPRPLCPRCTQHHQRPDPRTCRCRCRRRSFLRCQGRGLELNPDTCRCRKLRR
notes: Expressed from cDNA in 293EBNA cells (pREP7) or in Sf9/Sf21 insect cells; it forms disulfide-linked homodimers and heterodimers with VEGF165; also called hVEGF-B167; vascular endothelial growth factor B
binding result [4]: binds
